From paper doi:10.1101/2025.11.07.687288
Read-outs that look alike come from different tables or passages of the source.

Key:
[1] = molecular target: E-cadherin V81D L175D, as the Dimerization Activated TurboID pair (Δ-DAT: ΔEcadN and ΔEcadC); assay: split reporter
[2] = molecular target: E-cadherin V81D L175D, as the Dimerization Activated TurboID pair (Δ-DAT: ΔEcadN and ΔEcadC); assay: split reporter; remark: listed apart in the source

**Q.** Which biotinylation relative to WT-DAT, normalized for expression [1] does the source give for “E-cadherin V81D L175D, as the Dimerization Activated TurboID pair (Δ-DAT: ΔEcadN and ΔEcadC) (receptor)” here?
**A.** 59%

**Q.** What about the biotinylation relative to WT-DAT, normalized for expression [2] of the same substance?
**A.** 38.7%
